Measurements: article PMC5030662
“And” between values parts separate entries of the source, which are not always exact repeats. Identical values can stand only once.

What was measured:
[1] = biological target: voltage-gated potassium channel KV1.6 (rat) (UniProt P17659)
[2] = biological target: KcsA-KV1.1 hybrid channel; assay: competitive binding on spheroplasts by confocal fluorescence microscopy
[3] = biological target: KcsA-KV1.3 hybrid channel; assay: as above

UniProt P17659, sequence (P17659 whole entry): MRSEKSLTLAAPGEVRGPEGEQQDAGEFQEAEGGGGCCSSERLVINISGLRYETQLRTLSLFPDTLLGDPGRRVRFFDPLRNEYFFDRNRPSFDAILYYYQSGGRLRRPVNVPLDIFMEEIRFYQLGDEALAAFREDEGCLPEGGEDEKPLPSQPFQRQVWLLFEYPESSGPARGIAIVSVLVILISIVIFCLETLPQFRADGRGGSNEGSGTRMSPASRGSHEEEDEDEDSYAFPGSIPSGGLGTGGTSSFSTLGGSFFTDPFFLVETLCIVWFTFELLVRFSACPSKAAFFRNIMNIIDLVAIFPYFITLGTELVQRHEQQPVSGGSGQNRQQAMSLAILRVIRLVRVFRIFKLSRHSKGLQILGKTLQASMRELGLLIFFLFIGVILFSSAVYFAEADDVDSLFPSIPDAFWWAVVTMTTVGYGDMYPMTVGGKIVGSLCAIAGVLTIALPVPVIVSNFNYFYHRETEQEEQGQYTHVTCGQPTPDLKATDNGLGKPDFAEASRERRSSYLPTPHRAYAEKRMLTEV

In the case of “AgTx2 (from UniProt P46111 1-38) (peptide)”, the IC50 of inhibition of KV1.6 currents, two-electrode voltage clamp in Xenopus oocytes [1] is reported as 92 nM.

“OSK1 (from UniProt P55896 1-38) (peptide)” was tested, and the IC50 of inhibition of KV1.6 currents, two-electrode voltage clamp in Xenopus oocytes [1] was 71 nM.

For GVPINVSCTGSPQCIKPCKDAGMRFGKCMNRKCHCTPK [AgTx2], the Kd [2] was 0.049 nM and 0.067 nM and the Kd [3] was 0.031 nM and 0.03 nM.

GVIINVKCKISRQCLEPCKKAGMRFGKCMNGKCHCTPK [OSK1] was tested, and the Kd [2] was 1.31 nM and 1.42 nM and the Kd [3] was 0.9 nM and 0.7 nM.
